Data published in US20230110188A1 (ARGENX IIP, published 2023).
Where a chain is given by its changes, count along the chain named.

T1: Mouse MuSK as it stands on mouse muscle (neuromuscular junctions, C2C12 myotubes) (mouse, UniProt Q61006 22-868)
T1 sequence (looked up): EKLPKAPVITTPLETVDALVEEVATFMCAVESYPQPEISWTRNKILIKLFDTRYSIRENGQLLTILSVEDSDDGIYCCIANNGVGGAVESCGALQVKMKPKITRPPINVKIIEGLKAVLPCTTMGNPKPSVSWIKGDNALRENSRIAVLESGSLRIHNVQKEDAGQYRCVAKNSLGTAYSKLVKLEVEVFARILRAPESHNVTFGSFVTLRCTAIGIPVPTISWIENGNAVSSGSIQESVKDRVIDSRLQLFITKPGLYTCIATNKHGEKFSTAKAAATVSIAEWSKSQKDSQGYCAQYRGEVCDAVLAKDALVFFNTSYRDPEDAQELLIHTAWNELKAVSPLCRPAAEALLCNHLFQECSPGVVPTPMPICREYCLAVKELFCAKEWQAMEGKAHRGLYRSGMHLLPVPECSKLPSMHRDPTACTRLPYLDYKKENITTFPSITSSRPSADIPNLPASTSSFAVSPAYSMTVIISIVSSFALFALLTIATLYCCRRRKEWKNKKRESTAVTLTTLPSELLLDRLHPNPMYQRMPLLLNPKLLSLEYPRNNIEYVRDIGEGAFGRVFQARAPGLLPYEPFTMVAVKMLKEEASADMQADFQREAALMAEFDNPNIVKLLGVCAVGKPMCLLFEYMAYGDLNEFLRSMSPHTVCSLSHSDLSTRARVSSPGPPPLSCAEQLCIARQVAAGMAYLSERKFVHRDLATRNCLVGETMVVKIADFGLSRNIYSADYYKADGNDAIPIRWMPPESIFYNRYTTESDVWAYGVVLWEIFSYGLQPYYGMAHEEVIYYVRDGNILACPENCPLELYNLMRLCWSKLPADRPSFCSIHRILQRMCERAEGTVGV

T2: Mouse MuSK (recombinant, streptavidine and Flag tag) (mouse, UniProt Q61006 22-494)
T2 construct: not shown: streptavidine and Flag tag
T2 sequence: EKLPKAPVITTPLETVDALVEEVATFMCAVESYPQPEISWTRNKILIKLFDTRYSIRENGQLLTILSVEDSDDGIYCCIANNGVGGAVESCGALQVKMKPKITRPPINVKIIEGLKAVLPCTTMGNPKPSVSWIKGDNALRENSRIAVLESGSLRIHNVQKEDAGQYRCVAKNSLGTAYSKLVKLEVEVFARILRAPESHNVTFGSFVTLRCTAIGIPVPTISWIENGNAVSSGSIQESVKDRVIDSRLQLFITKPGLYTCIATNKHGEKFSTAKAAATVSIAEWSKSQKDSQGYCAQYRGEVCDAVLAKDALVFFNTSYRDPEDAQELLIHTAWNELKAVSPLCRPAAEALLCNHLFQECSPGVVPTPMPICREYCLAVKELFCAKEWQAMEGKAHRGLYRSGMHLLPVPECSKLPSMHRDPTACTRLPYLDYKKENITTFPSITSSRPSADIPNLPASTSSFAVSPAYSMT

T3: Human MuSK (R&D Systems, cat. 10189-MK, histidine tag) (human, UniProt O15146 24-495)
T3 construct: Bought protein; also called human monomeric MuSK-6xhis; not shown: histidine tag (6xhis)
T3 sequence: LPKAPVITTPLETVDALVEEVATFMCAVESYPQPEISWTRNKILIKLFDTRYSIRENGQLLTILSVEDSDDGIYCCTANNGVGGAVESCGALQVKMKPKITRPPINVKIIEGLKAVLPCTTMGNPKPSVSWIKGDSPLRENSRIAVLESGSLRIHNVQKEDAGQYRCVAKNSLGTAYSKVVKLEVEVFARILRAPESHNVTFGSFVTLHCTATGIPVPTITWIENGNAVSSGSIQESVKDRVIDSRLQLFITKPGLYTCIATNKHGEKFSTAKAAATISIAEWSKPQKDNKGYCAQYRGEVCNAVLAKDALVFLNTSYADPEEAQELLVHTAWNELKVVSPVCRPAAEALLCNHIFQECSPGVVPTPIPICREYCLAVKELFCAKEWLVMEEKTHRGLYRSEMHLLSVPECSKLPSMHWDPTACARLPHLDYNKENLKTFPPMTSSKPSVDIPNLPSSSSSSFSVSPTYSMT

T4: Rhesus monkey MuSK (recombinant, streptavidine and Flag tag) (rhesus monkey, UniProt O15146 24-495 (human entry))
T4 construct: also called Rhesus MuSK; not shown: streptavidine and Flag tag
T4 chain: T3 sequence with I144T, I278V, V342L, I355V, V389A, L437P

B1: 3D10a (antibody, human IgG1, kappa, L234A L235A, V domains shown)
VH: EVQLVESGGGLVKPGGSLRLSCAASGFTFSASTMAWVRQAPGKGLEWVSSVSGDSHHIYYADSLKGRFTISRDNAKNSLYLQMNSLRAEDTAVYYCARERLLRLGVGFDSWGQGTLVTVSS
VL: DIQMTQSPSSLSASVGDRVTITCRASQRISGFVNWYQQKPGKAPKLLIYAASTLQSGVPSRFSGSGSGTDFTLTISSLQPEDFATYYCQQSYSPLYTFGQGTKLEIKR
B2: 3F6c (antibody, human IgG1, kappa, L234A L235A, V domains shown)
VH: EVQLVESGGGLVKPGGSLRLSCAASGFTFSSYTMDWVRQAPGKGLEWVSSIGSNGDYIYYADSVRGRFTISRDNAKNSLYLQMNSLRAEDTAVYYCARGQLAVAGTHFDYWGQGTLVTVSS
VL: B1 VL with R28K, I29V, S30N, G31K, F32Y, Y96S
B3: 3D9b (antibody, human IgG1, kappa, L234A L235A, V domains shown)
VH: EVQLVESGGGLVKPGGSLRLSCAASGFTFSTYTMHWVRQAPGKGLEWVSSISSRSAYKYYADSVKGRFTISRDNAKNSLYLQMNSLRAEDTAVYYCARDFFQLGPPRFDSWGQGTLVTVSS
VL: B1 VL with G31S, V33L, A50G, T53N, L95S
B4: 4D3 (antibody, human IgG1, kappa, L234A L235A, V domains shown)
VH: B1 VH with A31S, S32Y, A35T, V51I, G53S, D54G, S55G, H57Y, A61T, S110F
VL: B1 VL with R28S, F32Y, V33L, P94A

Target: T1, Mouse MuSK as it stands on mouse muscle …
Experiment: cell-based or functional assay

AChR clusters larger or equal to 3 µm compared to agrin; Exp 1, batch Argenx | AChR clusters larger or equal to 3 µm compared to agrin; Exp 2, batch Argenx | AChR clusters larger or equal to 3 µm compared to agrin; Exp 3, batch UPX | Binder
64 % of agrin | 99 % of agrin | 71 % of agrin | B1
71 % of agrin | 105 % of agrin | 69 % of agrin | B2
89 % of agrin | 95 % of agrin | 91 % of agrin | B3
102 % of agrin | 73 % of agrin | 72 % of agrin | B4

Target: T2, Mouse MuSK (recombinant, streptavidine …)
Experiment: SPR (Biacore), antibody captured on anti-hFc chip, MuSK injected 0.3125-10 nM
Procedure: (§1) The affinity of 3D10a, 4D3, 3F6c and 3D9b for human, rhesus monkey and mouse MuSK was tested in Biacore using the setup shown in FIG. 3. […] The affinities are very high keeping in mind that MuSK was added here in solution, allowing only for monovalent binding (affinity versus avidity).

Kd [nM] | Binder
0.1 | B1
0.03 | B2
0.14 | B3
0.17 | B4

Target: T3, Human MuSK (R&D Systems, cat. 10189-MK, …)
Experiment: as above
Procedure: as §1

Kd [nM] | Binder
0.16 | B1
0.05 | B2
0.17 | B3
0.26 | B4

Target: T4, Rhesus monkey MuSK (recombinant, …)
Experiment: as above
Procedure: as §1

Kd [nM] | Binder
0.21 | B1
0.13 | B2
0.28 | B3
0.31 | B4

Target: T3, Human MuSK (R&D Systems, cat. 10189-MK, …)
Experiment: SPR (Biacore), pH 7.4 (summary table, repeats the average of Table 16)
Description: In order to study pH dependent binding of our antibodies to MuSK, the Biacore was used with the same setup as described in the paragraph entitled “Binding affinity for mouse, human and rhesus monkey recombinant MuSK in Biacore”. 6. […] For the other antibodies there is no real difference observed between pH 7.4 and 5.5.

koff [s⁻¹] | Binder
8e-05 | B2
0.00012 | B3
0.00014 | B4
